Assay results as given in patent US20160311868A1.

How the values were obtained:
[1] = biological target: TgMyoA heavy chain with C-terminal Bio-tag and FLAG-tag (TgMyoA-cBio-cFLAG) (Toxoplasma gondii) (UniProt O00934); test: cell-based or functional assay

Substance: TgMLC1, Toxoplasma gondii myosin light chain MLC1 (regulatory light chain), untagged
- speed of actin movement, in vitro motility assay (TgMyoA with TgMLC1 only) [1]: 1.5 µm/s

Substance: TgMyoA expressed with both light chains (TgMyoA heavy chain with bound TgMLC1 and TgELC1)
- Km for actin, steady-state actin-activated ATPase (skeletal muscle actin): a Km for actin of 136±22 µM at 30 °C
